The results in this text go back to patent US20250376532A1 (published 2025).

What is called Kd is the constant that tells how readily two partners part at equilibrium. In general, koff refers to the rate constant with which the complex falls apart.

For assay [1], the target named is T1, rDR5-IgG4 (recombinant wild type DR5 with IgG4 Fc) (UniProt O14763 56-210, biotinylated for BLI (site not stated)). The assay can be described thus: BLI. (In general: Biolayer interferometry detects binding as a change in optical thickness at a sensor tip.)
In assay [2] the target is T1, rDR5-IgG4 (recombinant wild type DR5 …). Put plainly: BLI. The source holds these as a separate data set.
A further assay concerns the target R104W DR5. The assay can be described thus: BLI.
The next assay has as its target R104Y DR5. The assay can be described thus: BLI.
The target of assay [3] is T1, rDR5-IgG4 (recombinant wild type DR5 …). The assay can be described thus: ELISA.
Assay [4] has the same target. Put plainly: ELISA. The source holds these as a separate data set. For orientation: In an ELISA, binding on a coated surface is turned into a signal by an enzyme label.
The target in another assay is KKCR. Put plainly: ELISA.
Another assay addresses RKCAR DR5. Put plainly: BLI.
The next assay deals with Chimp DR5. Put plainly: BLI.
For another assay, the target named is RKCSR DR5. Put plainly: BLI.
Another assay has as its target Monkey DR5. Put plainly: BLI.
For assay [5], the target named is rDR5-IgG4-Fc EMCR:AACR (98-101) Mut (90s Mut) (UniProt O14763 56-210, biotinylated for BLI (site not stated)). Put plainly: BLI.
The target in assay [6] is rDR5-IgG4-Fc SGE:AAA (135-137) NS Mut. The assay can be described thus: BLI.
The target in assay [7] is rDR5-IgG4-Fc KYGQ:AAGA (45-48) Mut. The assay can be described thus: BLI.
Another assay deals with rDR5-IgG4-Fc (UniProt O14763 56-210, biotinylated for BLI (site not stated)). Put plainly: BLI.
For another assay, the target named is DR5 (3RA). Put plainly: ELISA.
A further assay addresses DR5 (WT) (UniProt O14763 56-210, biotinylated for BLI (site not stated)). The assay can be described thus: ELISA.

R104Y DR5, sequence (chain, as listed by the source R104Y): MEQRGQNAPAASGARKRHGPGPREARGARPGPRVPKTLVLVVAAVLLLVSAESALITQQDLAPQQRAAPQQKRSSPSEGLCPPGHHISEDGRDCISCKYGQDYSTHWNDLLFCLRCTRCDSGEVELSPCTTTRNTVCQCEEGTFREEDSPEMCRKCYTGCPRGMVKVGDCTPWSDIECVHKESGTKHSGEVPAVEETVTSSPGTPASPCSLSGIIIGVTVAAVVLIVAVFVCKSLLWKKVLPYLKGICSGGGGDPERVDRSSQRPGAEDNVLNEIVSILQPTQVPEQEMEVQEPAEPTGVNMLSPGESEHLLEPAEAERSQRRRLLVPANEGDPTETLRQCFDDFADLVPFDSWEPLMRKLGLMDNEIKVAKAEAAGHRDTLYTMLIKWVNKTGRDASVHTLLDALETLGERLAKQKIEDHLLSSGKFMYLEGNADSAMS
R104W DR5, sequence (chain, as listed by the source R104W): as the sequence (chain, as listed by the source R104Y) above, with Y157W counted along it

B1: lexatumumab (antibody, V domains shown)
VH: EVQLVQSGGGVERPGGSLRLSCAASGFTFDDYGMSWVRQAPGKGLEWVSGINWNGGSTGYADSVKGRVTISRDNAKNSLYLQMNSLRAEDTAVYYCAKILGAGRGWYFDLWGKGTTVTVSS
VL: SSELTQDPAVSVALGQTVRITCQGDSLRSYYASWYQQKPGQAPVLVIYGKNNRPSGIPDRFSGSSSGNTASLTITGAQAEDEADYYCNSRDSSGNHVVFGGGTKLTVL
Regarding B1, the Kd in [1] came to 0.519 nM; in assay [2], 0.0376 nM; with R104W DR5, 1.82 nM; in the assay with R104Y DR5 it was 1.93 nM; in assay [3], 0.081 nM; in assay [4], 0.032 nM.

B2: Antibody (antibody, V domains shown)
VH: B1 VH
VL: B1 VL
In the assay with KKCR, B2 registered a Kd of 1.19 nM.

B3: Biot-Lexa (antibody, V domains shown)
VH: B1 VH
VL: B1 VL
As to B3, the Kd is 0.266 nM with RKCAR DR5, under 0.001 nM with Chimp DR5, 0.215 nM with RKCSR DR5 and 0.014 nM in the assay with Monkey DR5.

B4: KMTR2 (antibody, V domains shown)
VH: QVQLVQSGAEMKKPGASVKVSCKTSGYTFTNYKINWVRQAPGQGLEWMGWMNPDTDSTGYPQKFQGRVTMTRNTSISTAYMELSSLRSEDTAVYYCARSYGSGSYYRDYYYGMDVWGQGTTVTVSS
VL: EIVLTQSPATLSLSPGERATLSCRASQSVSSYLAWYQQKPGQAPRLLIYDASNRATGIPARFSGSGSGTDFTLTISSLEPEDFAVYYCQQRSNWPLTFGGGTKVEIKR
On to B4, for which the koff in assay [5] worked out at 1.61e-05 s⁻¹; in [6], 2.01e-05 s⁻¹; in assay [7], 1e-07 s⁻¹. In addition, the Kd was under 0.001 nM in the assay with rDR5-IgG4-Fc, 0.087 nM in the assay with DR5 (3RA) and 0.088 nM with DR5 (WT).
